The values that follow come from article PMC9009768 (PLoS Pathogens, 2022).

The target of the test is T1, His-tagged PIAS1 (human, UniProt O75925 1-651).
T1 construct: also called His-PIAS1; purified PIAS1
The test can be described thus: pull-down. The conditions noted are these: both partners purified.

T1 sequence (O75925 whole entry): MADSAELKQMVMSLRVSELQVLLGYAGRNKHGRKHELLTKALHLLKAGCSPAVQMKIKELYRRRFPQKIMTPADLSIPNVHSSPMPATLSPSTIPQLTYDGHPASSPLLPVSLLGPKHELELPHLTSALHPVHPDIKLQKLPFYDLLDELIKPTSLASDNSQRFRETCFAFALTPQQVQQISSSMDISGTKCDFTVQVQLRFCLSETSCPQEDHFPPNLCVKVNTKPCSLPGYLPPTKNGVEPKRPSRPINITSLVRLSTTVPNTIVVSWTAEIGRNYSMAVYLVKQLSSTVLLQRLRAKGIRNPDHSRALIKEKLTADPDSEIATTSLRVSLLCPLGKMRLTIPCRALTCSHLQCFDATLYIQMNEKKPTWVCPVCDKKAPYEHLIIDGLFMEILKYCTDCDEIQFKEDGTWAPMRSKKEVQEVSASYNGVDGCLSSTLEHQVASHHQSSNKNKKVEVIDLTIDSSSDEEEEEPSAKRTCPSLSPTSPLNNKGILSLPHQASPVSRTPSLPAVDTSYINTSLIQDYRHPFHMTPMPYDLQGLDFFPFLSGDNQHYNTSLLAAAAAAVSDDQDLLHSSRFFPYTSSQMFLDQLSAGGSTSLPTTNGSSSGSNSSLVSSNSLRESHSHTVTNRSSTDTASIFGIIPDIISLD

B1: GST-WSNNP (natural protein)
chain: MATKGTKRSYEQMETDGERQNATEIRASVGKMIGGIGRFYIQMCTELKLSDYEGRLIQNSLTIERMVLSAFDERRNKYLEEHPSAGKDPKKTGGPIYRRVDGKWMRELILYDKEEIRRIWRQANNGDDATAGLTHMMIWHSNLNDATYQRTRALVRTGMDPRMCSLMQGSTLPRRSGAAGAAVKGVGTMVMELIRMIKRGINDRNFWRGENGRRTRIAYERMCNILKGKFQTAAQRAMVDQVRESRNPGNAEFEDLIFLARSALILRGSVAHKSCLPACVYGPAVASGYDFEREGYSLVGIDPFRLLQNSQVYSLIRPNENPAHKSQLVWMACHSAAFEDLRVSSFIRGTKVVPRGKLSTRGVQIASNENMETMESSTLELRSRYWAIRTRSGGNTNQQRASSGQISIQPTFSVQRNLPFDRPTIMAAFTGNTEGRTSDMRTEIIRLMESARPEDVSFQGRGVFELSDEKAASPIVPSFDMSNEGSYFFGDNAEEYDN
With B1, the binding result is “binds”.
